This assay deals with Inactivated influenza H5N1, Ck HK Yu22/02 (Influenza A virus Ck/HK/Yu22/02 (H5N1)). Nature of the assay: cell-based or functional assay.

These results are taken from patent publication US20080199851A1.

B1: 10F7 single chain antibody (scFv)
scFv: QVQLQQPGAELVKPGASVKLSCKASGYTFTSYWMHWVKQRPGQGLEWIGEIDPSDSYTNYNQKFKGKATLTVDKSSSTAYMQLSSLTSEDSAVYYCARGGTGDFHYAMDYWGQGTSVTVSSGGGGSDILMTQSPSSMSVSLGDTVSITCHASQGISSNIGWLQQKPGKSFKGLIYHGTNLEDGVPSRFSGSGSGADYSLTISSLESEDFADYYCVQYVQFPYTFGGGTKLEIKR
B1 had a neutralization: dilution of 10F7 scFv (fold dilution) of 64.
